Assays:
[1] = biological target: Max(L) homodimer (UniProt P61244 P61244:2-160); experiment: EMSA; 60 nM Max(L), 20 nM DNA; same buffer; 3jc48-3 compound IC50 60.6 uM; conditions: tags: His6; chain copies: 2 (stated homodimer); label: 5'-hexachlorofluorescein
Procedure: (§1) EMSAs. These were performed essentially as described previously (23). Briefly, Ni⁺-agarose-purified His₆-tagged c-Myc bHLH-ZIP domain (residues 353-437) was used for all binding assays as was the His₆-tagged 151 residue isoform of Max, otherwise referred to as Max(S) (residues 2-151) (21). For each binding reaction, the proteins were allowed to heterodimerize at a concentration of 30 nM each in the presence of 20 nM of a 5′-HEX-tagged double-stranded 22-base pair oligonucleotide 5′-hexachlorofluoresceine-[…]-3′ (SEQ ID NO: 1) containing a consensus c-Myc binding site (CACGTG) and the indicated concentration of small molecule inhibitor. Control reactions contained the same oligonucleotide in the presence of 60 nM of the 160 residue isoform of Max referred to as Max(L) (21). All binding reactions were prepared in a buffer consisting of PBS (pH 7.3), 1 mmol/L EDTA, 0.1% NP40, 5% glycerol, 1 mmol/L DTT, and 0.4 mg/mL bovine serum albumin. Electrophoresis was performed on 8% polyacrylamide/bisacrylamide (80:1) gels in […] (23). Each reaction was run on at least three separate occasions.

[2] = biological target: c-Myc bHLH-ZIP/Max(S) heterodimer (UniProt P01106-1;P61244-2 P01106-1:353-437,P61244-2:2-151); experiment: EMSA; 30 nM each protein, 20 nM DNA; PBS pH 7.3, 1 mM EDTA, 0.1% NP40, 5% glycerol, 1 mM DTT, 0.4 mg/mL BSA; binding disrupted by 3jc48-3 (compound IC50 34.8 uM); conditions: tags: His6 (Myc His6-TEV tag from pET151, removed by TEV in one protocol), label: 5'-hexachlorofluorescein
Sequence of c-Myc bHLH-ZIP/Max(S) heterodimer (P01106 368-452, chain 1 of 2): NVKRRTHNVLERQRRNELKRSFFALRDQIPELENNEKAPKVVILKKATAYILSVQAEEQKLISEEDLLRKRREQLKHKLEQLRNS
Sequence of c-Myc bHLH-ZIP/Max(S) heterodimer (P61244 other isoform, or with tags, fused parts or gaps, chain 2 of 2): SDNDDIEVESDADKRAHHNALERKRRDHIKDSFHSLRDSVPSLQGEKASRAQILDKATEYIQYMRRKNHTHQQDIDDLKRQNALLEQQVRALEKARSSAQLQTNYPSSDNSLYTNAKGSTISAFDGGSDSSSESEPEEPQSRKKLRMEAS
Procedure: as §1

Sequence of Max(L) homodimer (P61244 2-160, one chain of several): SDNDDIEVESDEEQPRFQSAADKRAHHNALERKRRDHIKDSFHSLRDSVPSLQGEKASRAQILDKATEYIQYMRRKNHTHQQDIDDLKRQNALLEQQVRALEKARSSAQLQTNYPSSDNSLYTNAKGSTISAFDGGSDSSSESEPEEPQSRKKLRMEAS

B1: E-box 22-bp HEX oligonucleotide (dsDNA)
DNA 1: CACCCGGTCACGTGGCCTACAC
DNA 2: GTGTAGGCCACGTGACCGGGTG
B1: binds [1]; binds [2].

From patent US20140296307, “POTENT ANALOGUES OF THE C-MYC INHIBITOR 10074-G5 WITH IMPROVED CELL PERMEABILITY” (University of Maryland, Baltimore, published 2014)
